Values belong to the binder of their own block, whether it stands above or below them.
Legend:
[1] = molecular target: T1, human CD40 on cells (human tonsillar B cells, human dendritic cells, HEK-Blue CD40L cells) (human, UniProt P25942 21-277); assay: cell-based or functional assay
[2] = molecular target: T1, human CD40 on cells (human tonsillar B …); assay: cell-based or functional assay; remark: listed apart in the source
[3] = molecular target: T2, human CD40 (analyte in SPR) (human, UniProt P25942 21-193); assay: affinity in benchmark table; method not restated (SPR ProteOn of Example 3 presumed)
T2 construct: also called huCD40

[4] = molecular target: T3, cyno CD40 on cyno spleen B cells (Macaca fascicularis (cynomolgus), UniProt P25942 21-277 (human entry)); assay: cell-based or functional assay
T3 chain: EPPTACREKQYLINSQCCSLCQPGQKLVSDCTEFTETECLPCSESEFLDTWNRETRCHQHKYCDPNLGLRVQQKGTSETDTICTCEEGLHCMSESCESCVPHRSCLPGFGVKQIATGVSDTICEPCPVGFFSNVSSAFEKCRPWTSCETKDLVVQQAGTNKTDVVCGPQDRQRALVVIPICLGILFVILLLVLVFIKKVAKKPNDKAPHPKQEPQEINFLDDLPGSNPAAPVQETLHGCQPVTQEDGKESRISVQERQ

[5] = molecular target: T1, human CD40 on cells (human tonsillar B …); assay: cell-based or functional assay; remark: listed apart in the source
[6] = molecular target: T3, cyno CD40 on cyno spleen B cells; assay: cell-based or functional assay
[7] = molecular target: T1, human CD40 on cells (human tonsillar B …); assay: cell-based or functional assay; remark: listed apart in the source
[8] = molecular target: T2, human CD40 (analyte in SPR); assay: SPR, ProteOn XPR36, mAb captured on anti-human IgG Fc, CD40 as analyte, 25 C, 1:1 Langmuir
Description: Affinity of the antibodies to human CD40 was assessed using Surface Plasmon Resonance (SPR) using a ProteOn XPR36 system (BioRad). […] Approximately 5000 RU (response units) of mAbs were immobilized. The kinetic experiments were performed at 25° C. in running buffer (DPBS+0.01% P20+100 μg/ml BSA). To perform kinetic experiments, 200 RU of mAbs were captured followed by injections of analytes (human or cyno CD40) at 5 concentrations (in a 4-fold serial dilution). The association phase was monitored for 3 minutes at 50 μL/min, then followed by 15 minutes of buffer flow (dissociation phase). The chip surface was regenerated with two 18 second pulses of 100 mM H₃PO₄ (Sigma, Cat#7961) at 100 μL/min.
The collected data were processed using ProteOn Manager software. First, the data was corrected for background using inter-spots. Then, double reference subtraction of the data was performed by using the buffer injection for analyte injections. The kinetic analysis of the data was performed using a Langmuir 1:1 binding model. The results were reported in the format of Ka (On-rate), Kd (Off-rate) and KD (equilibrium dissociation constant).

[9] = molecular target: T2, human CD40 (analyte in SPR); assay: affinity in benchmark table; method not restated (SPR ProteOn of Example 3 presumed); Table 14 benchmark table, not Table 12

IC50, B cell proliferation, membrane CD40L, human B-cells [1]: 0.279 nM
IC50, B cell proliferation, soluble CD40L, human B-cells [1]: 0.223 nM
IC50, human DC IL-12p40 production, membrane CD40L [2]: 0.948 nM
IC50, human DC IL-12p40 production, soluble CD40L [2]: 0.32 nM
Kd [3]: 0.00936 nM
B1: Novartis CFZ533 (antibody, human IgG1, kappa, N297A, V domains shown)
VH: QVQLVESGGGVVQPGRSLRLSCAASGFTFSSYGMHWVRQAPGKGLEWVAVISYEESNRYHADSVKGRFTISRDNSKITLYLQMNSLRTEDTAVYYCARDGGIAAPGPDYWGQGTLVTVSS
VL: DIVMTQSPLSLTVTPGEPASISCRSSQSLLYSNGYNYLDWYLQKPGQSPQVLISLGSNRASGVPDRFSGSGSGTDFTLKISRVEAEDVGVYYCMQARQTPFTFGPGTKVDIRR
notes: Benchmark

IC50, B cell proliferation, membrane CD40L, human B-cells [1]: 0.132 nM
IC50, B cell proliferation, soluble CD40L, human B-cells [1]: 0.079 nM
IC50, B cell proliferation, soluble CD40L, cyno B-cells [4]: 0.146 nM
IC50, human DC IL-12p40 production, membrane CD40L [2]: 0.28 nM
IC50, human DC IL-12p40 production, soluble CD40L [2]: 0.119 nM
Kd [3]: 0.181 nM
B2: Astellas/Kirin ASKP-1240 (antibody, human IgG4 S228P, kappa, V domains shown)
VH: QLQLQESGPGLLKPSETLSLTCTVSGGSISSPGYYGGWIRQPPGKGLEWIGSIYKSGSTYHNPSLKSRVTISVDTSKNQFSLKLSSVTAADTAVYYCTRPVVRYFGWFDPWGQGTLVTVSS
VL: AIQLTQSPSSLSASVGDRVTITCRASQGISSALAWYQQKPGKAPKLLIYDASNLESGVPSRFSGSGSGTDFTLTISSLQPEDFATYYCQQFNSYPTFGQGTKVEIKR
notes: Benchmark

IC50, mCD40L-driven human B-cell proliferation [5]: 0.181 nM
IC50, sCD40L-driven human B-cell proliferation [5]: 0.132 nM
IC50, sCD40L-driven cyno B-cell proliferation [6]: 0.108 nM
IC50, mCD40L-driven DC IL-12p40 production [7]: 0.245 nM
IC50, sCD40L-driven DC IL-12p40 production [7]: 0.22 nM
Kd [8]: 0.107 nM
koff [8]: 0.000307 s⁻¹
kon [8]: 2.86e+06 M⁻¹ s⁻¹
Kd [9]: 0.0496 nM
B3: C40B176 (antibody, human IgG1, lambda)
heavy: EVQLVESGGGLVQPGGSLRLSCAASGFTFSSYAMSWVRQAPGKGLEWVSTINAAGGGTYYADSVKGRFTISRDNSKNTLYLQMNSLRAEDTAVYYCAKEGGKYYYYALDVWGQGTTVTVSSASTKGPSVFPLAPSSKSTSGGTAALGCLVKDYFPEPVTVSWNSGALTSGVHTFPAVLQSSGLYSLSSVVTVPSSSLGTQTYICNVNHKPSNTKVDKKVEPKSCDKTHTCPPCPAPEAAGASSVFLFPPKPKDTLMISRTPEVTCVVVDVSAEDPEVKFNWYVDGVEVHNAKTKPREEQYNSTYRVVSVLTVLHQDWLNGKEYKCKVSNKALPSSIEKTISKAKGQPREPQVYTLPPSREEMTKNQVSLTCLVKGFYPSDIAVEWESNGQPENNYKTTPPVLDSDGSFFLYSKLTVDKSRWQQGNVFSCSVMHEALHNHYTQKSLSLSPGK
light: SYELTQPPSVSVSPGQTASITCSGDKLGDKYAAWYQQKPGQSPVLVIYQDSRRPSGIPERFSGSNSGNTATLTISGTQAMDEADYYCQAWASSTVVFGGGTKLTVLGQPKAAPSVTLFPPSSEELQANKATLVCLISDFYPGAVTVAWKADSSPVKAGVETTTPSKQSNNKYAASSYLSLTPEQWKSHRSYSCQVTHEGSTVEKTVAPTECS
notes: IgG1sigma
